Like-named read-outs stand apart in the source and are kept apart here.
Experiments:
human MET on cells [1] = target: T1, human MET on cells (human, UniProt P08581 25-1390); test: cell-based or functional assay
human MET on cells [2] = target: T1, human MET on cells; test: cell-based or functional assay; remark: listed apart in the source
[3] = target: T2, hMet.mmh (human MET extracellular domain with C-terminal myc-myc-hexahistidine tag) (human, UniProt P08581 309-914; P08581 27-307); test: SPR 37C, antibody captured
T2 construct: soluble monomeric MET; also called monomeric human MET
Method: (§1) Kinetic association (kₐ) and dissociation (kd) rate constants were determined as described in Example 3.

[4] = target: MET (c-Met, hepatocyte growth factor receptor) on cells (human, UniProt P08581 25-1390); test: cell-based or functional assay
[5] = target: T2, hMet.mmh (human MET extracellular …); test: SPR 37C, antibody captured; remark: listed apart in the source
Method: as §1

[6] = target: T3, hMET.mFc (dimeric human MET) (human, UniProt P08581 27-307); test: SPR 37C, antibody captured
T3 construct: soluble dimeric MET protein
Method: (§2) The anti-Met antibodies tested in this example were bivalent monospecific binders of MET.
(§3) Kinetic association (kₐ) and dissociation (kd) rate constants were determined by fitting the real-time sensorgrams to a 1:1 binding model using Scrubber 2.0c curve fitting software. Binding dissociation equilibrium constant (KD) and dissociative half-life (t1/2) were calculated from the kinetic rate constants as: […]

[7] = target: T2, hMet.mmh (human MET extracellular …); test: SPR 37C, antibody captured; remark: listed apart in the source
Method: as §2, §3
For % Inhibition, HEK293/SRE-Luc Blocking Activity (HGF, 1 h mAb pre-bind) in this document: test concentration or dose not given here.

T1 sequence (P08581 25-1390 limits assumed, form in doubt): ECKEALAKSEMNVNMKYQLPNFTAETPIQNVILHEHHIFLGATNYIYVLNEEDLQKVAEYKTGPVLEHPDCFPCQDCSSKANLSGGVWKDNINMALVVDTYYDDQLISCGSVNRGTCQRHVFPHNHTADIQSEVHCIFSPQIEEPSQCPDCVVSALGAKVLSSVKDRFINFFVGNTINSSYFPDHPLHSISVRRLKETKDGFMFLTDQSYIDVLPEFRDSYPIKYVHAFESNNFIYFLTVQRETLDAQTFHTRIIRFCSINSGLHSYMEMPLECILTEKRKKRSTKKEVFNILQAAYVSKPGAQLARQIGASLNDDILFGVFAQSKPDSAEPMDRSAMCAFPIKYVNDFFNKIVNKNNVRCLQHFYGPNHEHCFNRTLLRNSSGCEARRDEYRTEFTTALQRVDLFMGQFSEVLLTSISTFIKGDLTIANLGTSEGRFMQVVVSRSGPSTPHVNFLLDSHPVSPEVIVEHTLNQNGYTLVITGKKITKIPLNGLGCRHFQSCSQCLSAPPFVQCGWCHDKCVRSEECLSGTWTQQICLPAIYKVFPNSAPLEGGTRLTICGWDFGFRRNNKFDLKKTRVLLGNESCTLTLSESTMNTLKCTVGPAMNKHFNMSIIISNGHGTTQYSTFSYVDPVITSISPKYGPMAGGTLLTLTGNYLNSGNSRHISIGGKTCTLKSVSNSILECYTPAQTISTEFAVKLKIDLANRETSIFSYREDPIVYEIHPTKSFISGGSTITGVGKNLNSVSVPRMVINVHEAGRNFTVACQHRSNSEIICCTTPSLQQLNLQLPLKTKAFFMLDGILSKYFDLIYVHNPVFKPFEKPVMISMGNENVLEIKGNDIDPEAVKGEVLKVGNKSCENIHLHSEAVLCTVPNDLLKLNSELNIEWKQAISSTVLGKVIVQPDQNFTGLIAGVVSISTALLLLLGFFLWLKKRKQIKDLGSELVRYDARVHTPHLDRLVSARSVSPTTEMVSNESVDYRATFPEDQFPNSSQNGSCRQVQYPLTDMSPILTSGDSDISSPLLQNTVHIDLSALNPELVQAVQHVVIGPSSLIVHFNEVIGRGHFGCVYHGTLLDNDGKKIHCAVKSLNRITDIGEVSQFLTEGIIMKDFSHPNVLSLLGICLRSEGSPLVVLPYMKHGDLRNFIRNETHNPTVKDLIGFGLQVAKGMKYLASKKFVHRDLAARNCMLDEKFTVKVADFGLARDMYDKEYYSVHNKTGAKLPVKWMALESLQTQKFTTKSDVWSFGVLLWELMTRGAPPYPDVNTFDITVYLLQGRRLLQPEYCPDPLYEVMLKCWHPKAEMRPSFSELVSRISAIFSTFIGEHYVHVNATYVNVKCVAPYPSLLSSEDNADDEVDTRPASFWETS
T2 sequence (P08581 other isoform, or with tags, fused parts or gaps limits assumed, chain 1 of 2): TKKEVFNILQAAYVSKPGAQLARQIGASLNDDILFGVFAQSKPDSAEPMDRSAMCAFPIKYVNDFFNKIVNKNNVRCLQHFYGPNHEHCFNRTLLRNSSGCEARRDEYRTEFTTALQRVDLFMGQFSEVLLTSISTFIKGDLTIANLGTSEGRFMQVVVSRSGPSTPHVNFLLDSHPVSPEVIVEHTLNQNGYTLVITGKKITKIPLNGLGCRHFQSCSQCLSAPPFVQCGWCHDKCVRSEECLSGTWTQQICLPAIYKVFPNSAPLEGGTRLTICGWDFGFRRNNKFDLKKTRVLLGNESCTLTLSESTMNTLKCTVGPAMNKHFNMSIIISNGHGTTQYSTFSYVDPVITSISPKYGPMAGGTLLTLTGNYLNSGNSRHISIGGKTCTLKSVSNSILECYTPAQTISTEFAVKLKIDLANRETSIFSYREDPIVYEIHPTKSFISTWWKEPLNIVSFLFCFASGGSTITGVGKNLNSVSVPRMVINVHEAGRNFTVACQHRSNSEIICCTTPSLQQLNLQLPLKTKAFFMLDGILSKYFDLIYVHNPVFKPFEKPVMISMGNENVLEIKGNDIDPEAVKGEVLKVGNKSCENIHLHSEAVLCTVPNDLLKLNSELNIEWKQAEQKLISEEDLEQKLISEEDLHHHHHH
T2 sequence (P08581 27-307 limits assumed, chain 2 of 2): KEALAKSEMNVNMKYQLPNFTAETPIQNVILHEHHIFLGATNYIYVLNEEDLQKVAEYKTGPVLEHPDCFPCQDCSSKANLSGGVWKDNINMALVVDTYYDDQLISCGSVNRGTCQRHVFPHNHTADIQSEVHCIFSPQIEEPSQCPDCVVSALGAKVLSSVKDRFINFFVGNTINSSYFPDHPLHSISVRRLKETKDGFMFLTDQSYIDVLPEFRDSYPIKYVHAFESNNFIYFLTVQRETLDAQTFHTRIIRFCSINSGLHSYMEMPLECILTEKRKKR
T3 sequence (P08581 other isoform, or with tags, fused parts or gaps limits assumed, chain 1 of 2): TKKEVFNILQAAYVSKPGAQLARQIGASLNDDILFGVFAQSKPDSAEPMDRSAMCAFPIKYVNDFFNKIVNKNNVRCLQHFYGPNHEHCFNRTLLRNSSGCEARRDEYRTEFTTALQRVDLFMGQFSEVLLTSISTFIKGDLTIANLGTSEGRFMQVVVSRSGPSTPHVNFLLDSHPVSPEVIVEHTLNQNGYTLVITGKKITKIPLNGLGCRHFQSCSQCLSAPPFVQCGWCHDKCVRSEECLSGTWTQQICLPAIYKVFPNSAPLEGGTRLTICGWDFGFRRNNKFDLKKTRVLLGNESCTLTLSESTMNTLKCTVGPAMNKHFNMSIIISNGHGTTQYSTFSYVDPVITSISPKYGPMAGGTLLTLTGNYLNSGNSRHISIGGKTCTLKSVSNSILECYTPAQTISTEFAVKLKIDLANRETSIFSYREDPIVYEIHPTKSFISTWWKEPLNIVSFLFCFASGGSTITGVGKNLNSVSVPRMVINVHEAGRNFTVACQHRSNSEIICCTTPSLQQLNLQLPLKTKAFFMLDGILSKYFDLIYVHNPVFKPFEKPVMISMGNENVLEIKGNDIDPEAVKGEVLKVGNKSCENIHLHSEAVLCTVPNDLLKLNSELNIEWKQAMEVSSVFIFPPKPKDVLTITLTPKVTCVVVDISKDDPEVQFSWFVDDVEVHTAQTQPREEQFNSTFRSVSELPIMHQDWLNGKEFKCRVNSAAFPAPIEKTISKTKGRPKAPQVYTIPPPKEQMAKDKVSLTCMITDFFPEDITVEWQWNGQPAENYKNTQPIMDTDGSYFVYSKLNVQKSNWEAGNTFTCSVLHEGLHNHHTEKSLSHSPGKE
T3 sequence (P08581 27-307 limits assumed, chain 2 of 2): as the sequence (P08581 27-307 limits assumed, chain 2 of 2) above
Sequence of MET (c-Met, hepatocyte growth factor receptor) on cells (P08581 25-1390 limits assumed, form in doubt): as the sequence (P08581 25-1390 limits assumed, form in doubt) above

Relative MET Level, SNU5 cells, 18 hrs (human MET on cells [1])	% Inhibition, HEK293/SRE-Luc Blocking Activity (HGF, 1 h mAb pre-bind) (human MET on cells [2]) [%]	EC50, Ligand (HGF)-Independent HEK293/SRE-Luc Activation (human MET on cells [2]) [pM]	Fold Response, Ligand (HGF)-Independent HEK293/SRE-Luc Activation (human MET on cells [2]) [fold]	IC50, HEK293/SRE-Luc Blocking Activity (HGF, 1 h mAb pre-bind) (human MET on cells [2]) [pM]	T½ [3] [min]	Binder	other results
0.18 relative to control (hFc)	89	6800	2.5	520		H4H14640D (bispecific antibody, human IgG4, V domains shown) VH 1: QVQLVQSGTEVKEPGASVKVSCKASGYSFTTYGISWLRQAPGQGLEWMGWISTYNGDTISAQMLQDRVTLTADTSTRTAYMELRSLRSDDTAVYYCARGHEYDSLVYSYWGQGTLVTVSS VH 2: EVQLVESGGGLVQPGGSLRLSCAASGFIVTTNYMTWLRQAPGKGLEWVSLIYSSGHTYYADSVKGRFTISRHNSKNTLYLQMDSLRAEDTAVYYCASAFAADVFDIWGQGTMVTVSS VL: not shown	
					0.7	H4H13306P2 (antibody, human IgG4, V domains shown, human IgG4 Fc (H4H), bivalent monospecific; also called parental antibody 1; M1) VH: EVQLVESGGGLVQPGTSLRLSCAASGFTFDDYAMHWVRQAPGKGLEWVSGITWNSYNIDYADSVKGRFTISRDNAKNSLYLQMNSLRAEDTALYYCAKDDDYSNYVYFDYWGQGTLVTVSS VL: not shown	Kd [6]: 2150 pM; T½ [6]: 4.4 min; Kd [7]: 109000 pM; T½ [7]: 0.7 min

The remaining lines, values behind:

Binder	Relative MET Level, SNU5 cells, 18 hrs (human MET on cells [1])	% Inhibition, HEK293/SRE-Luc Blocking Activity (HGF, 1 h mAb pre-bind) (human MET on cells [2]) [%]	EC50, Ligand (HGF)-Independent HEK293/SRE-Luc Activation (human MET on cells [2]) [pM]	Fold Response, Ligand (HGF)-Independent HEK293/SRE-Luc Activation (human MET on cells [2]) [fold]	IC50, HEK293/SRE-Luc Blocking Activity (HGF, 1 h mAb pre-bind) (human MET on cells [2]) [pM]	T½ [3] [min]	other results
H4H14636D (bispecific antibody, human IgG4, V domains shown) VH 1: EVQLVESGGGLVQPGGSLRLSCAASGFIFSNYEMNWVRQAPGKGLEWISYITSSGNMKYYADSVKGRFTISRDNDKNSLYLQMSSLRVEDTAVYYCVRGGRFLEWLTYYVMVVWGQGTTVTVSS VH 2: EVQLVESGGGLVQPGGSLRLSCAASGFIVTTNYMTWLRQAPGKGLEWVSLIYSSGHTYYADSVKGRFTISRHNSKNTLYLQMDSLRAEDTAVYYCASAFAADVFDIWGQGTMVTVSS VL: not shown	0.5 relative to control (hFc)	74	280	2.8			
H4H14637D (bispecific antibody, human IgG4, V domains shown) VH 1: QVQLVESGGGVVQPGTSLRLSCVASGFTFRNFGMHWVRQAPGKGLEWVANIWFDGSNENYVESIQGRFTISRDNSKNTLNLQMNSLRAEDSAVYYCVREGILGTTNPYDAFDVWGQGTMVTVSS VH 2: EVQLVESGGGLVQPGGSLRLSCAASGFIVTTNYMTWLRQAPGKGLEWVSLIYSSGHTYYADSVKGRFTISRHNSKNTLYLQMDSLRAEDTAVYYCASAFAADVFDIWGQGTMVTVSS VL: not shown	0.49 relative to control (hFc)	73	4100	2.1			
H4H14639D (bispecific antibody, human IgG4, V domains shown, MET x MET bispecific, expressed as human IgG4; also called bispecific antibody No. 122; MET×MET bispecific antibody) VH 1: EVQLVESGGGLVQPGTSLRLSCAASGFTFDDYAMHWVRQAPGKGLEWVSGITWNSYNIDYADSVKGRFTISRDNAKNSLYLQMNSLRAEDTALYYCAKDDDYSNYVYFDYWGQGTLVTVSS VH 2: EVQLVESGGGLVQPGGSLRLSCAASGFIVTTNYMTWLRQAPGKGLEWVSLIYSSGHTYYADSVKGRFTISRHNSKNTLYLQMDSLRAEDTAVYYCASAFAADVFDIWGQGTMVTVSS VL: not shown						70.8	koff [3]: 0.000163 s⁻¹; IC50 (read off the curve); blocking of HGF-dependent SRE-driven luciferase signal in HEK293T cells [4]: ~400 pM; T½ [5]: 70.8 min; koff [5]: 0.000163 s⁻¹
H4H14634D (bispecific antibody, human IgG4, V domains shown) VH 1: QVQLQESGPGLVKPSETLSLTCTVSGDSISSYYWTWIRQPPGKGLEWIGYIFYRGGTTYNPSLKSRVTISVDTSKNQFSLKLRSVTAADTAVYYCARGDDLLVVTSVYWYIDLWGRGTLVTVSS VH 2: EVQLVESGGGLVQPGGSLRLSCAASGFIVTTNYMTWLRQAPGKGLEWVSLIYSSGHTYYADSVKGRFTISRHNSKNTLYLQMDSLRAEDTAVYYCASAFAADVFDIWGQGTMVTVSS VL: not shown	0.45 relative to control (hFc)	85	90	3.4	9.7		
